Reference: article PMC4351158 (Structure (London, England : 1993), 2015)
Where no end group is shown, it is not given here. fluorescein = fluorescein, a fluorescent label on the peptide N-terminus

Target: T1, DegS Y162A (E. coli, UniProt P0AEE3 27-355, Y162A)
T1 sequence (looked up): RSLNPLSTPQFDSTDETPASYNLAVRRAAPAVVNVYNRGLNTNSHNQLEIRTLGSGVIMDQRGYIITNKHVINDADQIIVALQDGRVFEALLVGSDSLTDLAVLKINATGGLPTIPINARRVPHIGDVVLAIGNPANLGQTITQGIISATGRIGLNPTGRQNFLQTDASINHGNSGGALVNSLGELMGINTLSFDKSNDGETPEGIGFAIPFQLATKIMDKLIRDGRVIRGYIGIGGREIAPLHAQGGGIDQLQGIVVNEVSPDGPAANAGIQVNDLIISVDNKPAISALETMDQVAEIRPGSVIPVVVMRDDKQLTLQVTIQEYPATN
Assay: fluorescence polarisation

Kd: 1900 ± 400 nM
Binder: fluorescein-DNRDGNVYYF [fluorescent OMP peptide fluorescein-DNRDGNVYYF]
